Source: patent publication US20160075795A1 (Hoffmann-La Roche, published 2016)
Blank lines part the entries; values can stand above or below the binder they belong to.

Legend:
[1] = biological target: T1, membrane-bound human carcinoembryonic antigen (CEA) (human, UniProt P06731 35-685, GPI anchor at the C-terminus of the mature chain; heavily N-glycosylated. Neither can be carried in the letters.); test: flow cytometry on MKN45 target cells, antibodies as IgG [top panel]
T1 construct: Target of the flow cytometry experiments; also called CEACAM-5; CD66e
T1 sequence: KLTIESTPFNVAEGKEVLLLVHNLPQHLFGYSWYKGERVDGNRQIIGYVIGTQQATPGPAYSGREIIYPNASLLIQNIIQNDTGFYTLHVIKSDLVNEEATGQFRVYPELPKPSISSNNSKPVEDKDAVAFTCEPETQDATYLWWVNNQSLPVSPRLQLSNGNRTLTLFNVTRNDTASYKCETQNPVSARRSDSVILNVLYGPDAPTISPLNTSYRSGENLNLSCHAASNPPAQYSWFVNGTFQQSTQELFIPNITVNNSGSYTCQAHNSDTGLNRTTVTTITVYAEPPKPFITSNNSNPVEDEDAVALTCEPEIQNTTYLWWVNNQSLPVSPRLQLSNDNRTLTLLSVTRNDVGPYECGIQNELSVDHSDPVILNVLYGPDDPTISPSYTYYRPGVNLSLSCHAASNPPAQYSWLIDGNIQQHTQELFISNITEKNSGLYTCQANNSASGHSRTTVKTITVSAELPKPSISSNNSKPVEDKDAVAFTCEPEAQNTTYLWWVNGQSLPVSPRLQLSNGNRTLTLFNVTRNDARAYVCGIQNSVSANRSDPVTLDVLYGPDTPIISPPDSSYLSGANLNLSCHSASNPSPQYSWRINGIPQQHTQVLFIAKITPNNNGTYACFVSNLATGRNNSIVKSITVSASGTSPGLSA

huNABA-avi-his [2] = biological target: T2, huNABA-avi-his (human, biotinylated in vivo at the avi tag); test: SPR (Biacore); antigen not given, taken as huNABA-avi-his
T2 construct: immobilized on the Biacore chip; also called NABA-avi-his reagent; N-A1-B3-A2
T2 chain: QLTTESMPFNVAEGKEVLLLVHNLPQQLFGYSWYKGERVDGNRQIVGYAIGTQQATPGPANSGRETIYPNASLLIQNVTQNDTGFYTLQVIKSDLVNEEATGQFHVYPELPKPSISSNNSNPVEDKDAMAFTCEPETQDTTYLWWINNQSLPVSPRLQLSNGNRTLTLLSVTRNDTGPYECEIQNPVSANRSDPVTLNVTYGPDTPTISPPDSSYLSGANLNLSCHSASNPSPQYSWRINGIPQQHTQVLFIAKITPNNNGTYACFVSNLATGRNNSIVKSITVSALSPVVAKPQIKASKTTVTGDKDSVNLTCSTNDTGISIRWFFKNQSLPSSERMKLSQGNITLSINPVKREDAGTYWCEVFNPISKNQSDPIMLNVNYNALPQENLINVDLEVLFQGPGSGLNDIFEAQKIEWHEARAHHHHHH

huNABA-avi-his [3] = biological target: T2, huNABA-avi-his; test: SPR (Biacore), Fab over immobilized NABA-avi-his; monovalent affinity column
Description: For the exact analysis of the kinetic parameters, Fabs were purified from bacterial cultures. A 500 ml culture was inoculated and induced with 1 mM IPTG at an OD600 0.9. Bacteria were incubated at 25° C. overnight and harvested by centrifugation. After the incubation of the resuspended pellet for 20 min in 25 ml PPB buffer (30 mM Tris-HCl pH8, 1 mM EDTA, 20% sucrose), bacteria were centrifuged again and the supernatant was harvested. This incubation step was repeated once with 25 ml of a 5 mM MgSO₄ solution. The supernatants of both incubation steps were pooled, filtered and loaded on a IMAC column (His gravitrap, GE Healthcare). Subsequently, the column was washed with 40 volumes. After the elution (500 mM NaCl, 500 mM Imidazole, 20 mM NaH₂PO₄ pH 7.4) the eluate was re-buffered using PD 10 columns (GE Healthcare). The kinetic parameters of the purified Fabs were then studied by SPR-analysis in a dilution row that ranged from 200 nM to 6.25 nM.
Table 11, below, summarizes the affinity constants of the various affinity matured antibody sequences. The parental antibody PR1A3 is listed as well as several light chain and heavy chain combinations of matured and non matured sequences. All values were obtained by Biacore technology by measuring the association (kₒₙ) and dissociation (koff) rate constants of the various soluble antibody constructs in Fab format on a Biacore chip with immobilized NABA-avi-his reagent (SEQ ID NO 158) as the antigen. The affinity constant is labeled with KD.

huNABA-avi-his [4] = biological target: T2, huNABA-avi-his; test: SPR (Biacore), immobilized NABA-avi-his; bivalent affinity column (bivalent construct not described)
[5] = biological target: T1, membrane-bound human carcinoembryonic …; test: flow cytometry on CEA-positive MKN45 target cells, antibodies as IgG [bottom panel]

B2: 1C8 Fab (hc/wt) (Fab, V domains shown)
VH: QVQLVQSGSELKKPGASVKVSCKASGYTFTEFGMNWVRQAPGQGLEWMGWINTKTGEATYVEEFKGRFVFSLDTSVSTAYLQISSLKAEDTAVYYCARWDFYHYVEAMDYWGQGTTVTVSS
VL: DIQMTQSPSSLSASVGDRVTITCKASQNVGTNVAWYQQKPGKAPKLLIYSASYRYSGVPSRFSGSGSGTDFTLTISSLQPEDFATYYCHQYYTYPLFTFGQGTKLEIK
notes: Fab format
- Kd (huNABA-avi-his [2]): 586 nM
- Kd (huNABA-avi-his [3]): 586 nM
- koff (huNABA-avi-his [3]): 0.0076 s⁻¹
- kon (huNABA-avi-his [3]): 12900 M⁻¹ s⁻¹
- Kd (huNABA-avi-his [4]): 0.693 nM
- koff (huNABA-avi-his [4]): 0.000324 s⁻¹
- kon (huNABA-avi-his [4]): 467000 M⁻¹ s⁻¹

B4: Affinity Matured CDRH-3 construct with CDR-H3 SEQ ID NO:33 (WDFAHYFQTMDY) (Fab, V domains shown)
VH: QVQLVQSGSELKKPGASVKVSCKASGYTFTEFGMNWVRQAPGQGLEWMGWINTKTGEATYVEEFKGRFVFSLDTSVSTAYLQISSLKAEDTAVYYCARWDFAHYFQTMDYWGQGTTVTVSS
VL: DIQMTQSPSSLSASVGDRVTITCKASQNVGTNVAWYQQKPGKAPKLLIYSASYRYSGVPSRFSGSGSGTDFTLTISSLQPEDFATYYCHQYYTYPLFTFGQGTKLEIK
- Kd (huNABA-avi-his [2]): 59 nM

B5: H3 Full (5) 19 Fab (hc/wt) (Fab, V domains shown)
VH: QVQLVQSGSELKKPGASVKVSCKASGYTFTEFGMSWVRQAPGQGLEWMGWINTKTGEATYVEEFKGRFVFSLDTSVSTAYLQISSLKAEDTAVYYCARWDAFEYVKALDYWGQGTTVTVSS
VL: DIQMTQSPSSLSASVGDRVTITCKASQNVGTNVAWYQQKPGKAPKLLIYSASYRYSGVPSRFSGSGSGTDFTLTISSLQPEDFATYYCHQYYTYPLFTFGQGTKLEIK
- Kd (huNABA-avi-his [4]): 0.19 nM
- koff (huNABA-avi-his [4]): 0.000175 s⁻¹
- kon (huNABA-avi-his [4]): 902000 M⁻¹ s⁻¹

B7: Affinity Matured CDRH-3 construct with CDR-H3 SEQ ID NO:34 (WDFAYYFQTMDY) (Fab, V domains shown)
VH: QVQLVQSGSELKKPGASVKVSCKASGYTFTEFGMNWVRQAPGQGLEWMGWINTKTGEATYVEEFKGRFVFSLDTSVSTAYLQISSLKAEDTAVYYCARWDFAYYFQTMDYWGQGTTVTVSS
VL: DIQMTQSPSSLSASVGDRVTITCKASQNVGTNVAWYQQKPGKAPKLLIYSASYRYSGVPSRFSGSGSGTDFTLTISSLQPEDFATYYCHQYYTYPLFTFGQGTKLEIK
- Kd (huNABA-avi-his [2]): 44 nM

Further lines, results first:

- EC50 (read off the curve) [1]: ~0.6 µg/mL
B1: CH7A / CL1A rH11 antibody (parent heavy chain with affinity matured light chain) (antibody, human IgG1, V domains shown)
VH: QVQLVQSGSELKKPGASVKVSCKASGYTFTEFGMNWVRQAPGQGLEWMGWINTKTGEATYVEEFKGRFVFSLDTSVSTAYLQISSLKAEDTAVYYCARWDFYDYVEAMDYWGQGTTVTVSS
VL: DIQMTQSPSSLSASVGDRVTITCKASQTVSANVAWYQQKPGKAPKLLIYLASYRYRGVPSRFSGSGSGTDFTLTISSLQPEDFATYYCHQYYTYPLFTFGQGTKLEIKR
notes: also called CLA1 rH11

- EC50 (read off the curve) [5]: ~0.7 µg/mL
B3: humanized PR1A3 antibody comprising heavy chain variable region construct CH7A and light chain variable region construct CL1A (antibody, V domains shown)
VH: QVQLVQSGSELKKPGASVKVSCKASGYTFTEFGMNWVRQAPGQGLEWMGWINTKTGEATYVEEFKGRFVFSLDTSVSTAYLQISSLKAEDTAVYYCARWDFYDYVEAMDYWGQGTTVTVSS
VL: DIQMTQSPSSLSASVGDRVTITCKASQNVGTNVAWYQQKPGKAPKLLIYSASYRYSGVPSRFSGSGSGTDFTLTISSLQPEDFATYYCHQYYTYPLFTFGQGTKLEIK
notes: also called CH7A CL1A; CH7A, CL1A

- Kd (huNABA-avi-his [2]): 69 nM
B6: Affinity Matured CDRH-3 construct with CDR-H3 SEQ ID NO:35 (WDFAYYLEAMDY) (Fab, V domains shown)
VH: QVQLVQSGSELKKPGASVKVSCKASGYTFTEFGMNWVRQAPGQGLEWMGWINTKTGEATYVEEFKGRFVFSLDTSVSTAYLQISSLKAEDTAVYYCARWDFAYYLEAMDYWGQGTTITVSS
VL: DIQMTQSPSSLSASVGDRVTITCKASQNVGTNVAWYQQKPGKAPKLLIYSASYRYSGVPSRFSGSGSGTDFTLTISSLQPEDFATYYCHQYYTYPLFTFGQGTKLEIK
